Patent US12649778
Values joined by “and” are separate entries in the source; they are usually repeats but may differ in a detail not shown here. Equal values may be shown once.

B1: 65D3 chimeric Fab, NNK library L18 mutant L to N (VL L55N) (Fab, V domains shown)
VH: QSLEESGGRLVTPGGSLTLTCTVSGFSLSTHDISWVRQAPGKGLEWIGVIARRGSTYYASWAKGRFTISKTSTTVDLKITSPTIEDTATYFCAREEFDFWGQGTLVTVSS
VL: AVLTQTASPVSAAVGGTVTISCQSSQSVYNNKELSWFQQKPGQPPKLLISYASTNASGVPSRFKGSGSGTQFTLTISDLECDDAATYYCLGGYASTIDMWAFGGGTEVVVK
B2: 65D3 chimeric Fab, NNK library L2 mutant S to M (VL S24M) (Fab, V domains shown)
VH: QSLEESGGRLVTPGGSLTLTCTVSGFSLSTHDISWVRQAPGKGLEWIGVIARRGSTYYASWAKGRFTISKTSTTVDLKITSPTIEDTATYFCAREEFDFWGQGTLVTVSS
VL: AVLTQTASPVSAAVGGTVTISCQMSQSVYNNKELSWFQQKPGQPPKLLISYASTLASGVPSRFKGSGSGTQFTLTISDLECDDAATYYCLGGYASTIDMWAFGGGTEVVVK
B3: 65D3 chimeric Fab, NNK library L2 mutant S to T (VL S24T) (Fab, V domains shown)
VH: QSLEESGGRLVTPGGSLTLTCTVSGFSLSTHDISWVRQAPGKGLEWIGVIARRGSTYYASWAKGRFTISKTSTTVDLKITSPTIEDTATYFCAREEFDFWGQGTLVTVSS
VL: AVLTQTASPVSAAVGGTVTISCQTSQSVYNNKELSWFQQKPGQPPKLLISYASTLASGVPSRFKGSGSGTQFTLTISDLECDDAATYYCLGGYASTIDMWAFGGGTEVVVK
B4: 65D3 chimeric Fab, NNK library L2 mutant S to G (VL S24G) (Fab, V domains shown)
VH: QSLEESGGRLVTPGGSLTLTCTVSGFSLSTHDISWVRQAPGKGLEWIGVIARRGSTYYASWAKGRFTISKTSTTVDLKITSPTIEDTATYFCAREEFDFWGQGTLVTVSS
VL: AVLTQTASPVSAAVGGTVTISCQGSQSVYNNKELSWFQQKPGQPPKLLISYASTLASGVPSRFKGSGSGTQFTLTISDLECDDAATYYCLGGYASTIDMWAFGGGTEVVVK
B5: 65D3 chimeric Fab, NNK library L20 mutant S to H (VL S57H) (Fab, V domains shown)
VH: QSLEESGGRLVTPGGSLTLTCTVSGFSLSTHDISWVRQAPGKGLEWIGVIARRGSTYYASWAKGRFTISKTSTTVDLKITSPTIEDTATYFCAREEFDFWGQGTLVTVSS
VL: AVLTQTASPVSAAVGGTVTISCQSSQSVYNNKELSWFQQKPGQPPKLLISYASTLAHGVPSRFKGSGSGTQFTLTISDLECDDAATYYCLGGYASTIDMWAFGGGTEVVVK
B6: 65D3 chimeric Fab, NNK library H25 mutant K to R (VH K63R) (Fab, V domains shown)
VH: QSLEESGGRLVTPGGSLTLTCTVSGFSLSTHDISWVRQAPGKGLEWIGVIARRGSTYYASWARGRFTISKTSTTVDLKITSPTIEDTATYFCAREEFDFWGQGTLVTVSS
VL: AVLTQTASPVSAAVGGTVTISCQSSQSVYNNKELSWFQQKPGQPPKLLISYASTLASGVPSRFKGSGSGTQFTLTISDLECDDAATYYCLGGYASTIDMWAFGGGTEVVVK
B7: Antibody 74D3-1 (antibody, V domains shown)
VH: QSVEESGGRLVTPGTPLTLTCTVSGIDLSNNAMGWVRQAPGEGLEWIGTIYASGNTYYASWAKGRFAISKTSTTVDLKMTSLTAADTATYFCARLFNIWGPGTLVTVSS
VL: ADIVLTQSPASVSSAVGGTVTINCQASQSVYDNKNLSWFQQKPGQPPKQLIYAASTLASGVPSRFKGSGSGTQFTLTISGMQCDDAATYYCGGRDSGNIYDFGGGTEVVVK

Assays:
[1] = target: Peptide 1593 (…) (Mycobacterium tuberculosis); assay: ELISA, NNK clone supernatant on coated peptide
[2] = target: Peptide 1593 (…) (Mycobacterium tuberculosis); assay: ELISA, NNK clone supernatant on coated peptide (22 hits)
[3] = target: Peptide 2004 (…) (Mycobacterium tuberculosis)

Binder | OD450 nm [1] | ratio (OD450 to WT OD450) [1] | OD450 nm [2] | ratio (OD450 to WT OD450) [2] | rank by relative ELISA signal across the dilution series (1 = highest) [3]
B1 | 0.937 OD450 | 1.26 fold of WT | 0.937 OD450 | 1.26 fold of WT | 
B2 | 1.15 OD450 and 1.09 OD450 | 1.38 fold of WT and 1.31 fold of WT | 1.09 OD450 | 1.31 fold of WT | 
B3 | 1.01 OD450 and 1.07 OD450 | 1.21 fold of WT and 1.29 fold of WT | 1.07 OD450 | 1.29 fold of WT | 
B4 | 1.02 OD450 and 1.11 OD450 | 1.23 fold of WT and 1.33 fold of WT | 1.11 OD450 | 1.33 fold of WT | 
B5 | 0.596 OD450 | 1.25 fold of WT | 0.596 OD450 | 1.25 fold of WT | 
B6 | 0.872 OD450 | 1.4 fold of WT | 0.872 OD450 | 1.4 fold of WT | 
B7 |  |  |  |  | 9
